Measured values published in US20180009897A1 (IGM BIOSCIENCES, published 2018).

Tests used:
Experiment in all cases: specificity ELISA as in Example 2, receptor coated
[1] = target: T1, Soluble DR4 protein (R&D Systems Catalog #347-DR-100/CF) (human, UniProt O00220 24-239, limits assumed)
T1 construct: also called human DR4; TRAILR1
T1 sequence (looked up): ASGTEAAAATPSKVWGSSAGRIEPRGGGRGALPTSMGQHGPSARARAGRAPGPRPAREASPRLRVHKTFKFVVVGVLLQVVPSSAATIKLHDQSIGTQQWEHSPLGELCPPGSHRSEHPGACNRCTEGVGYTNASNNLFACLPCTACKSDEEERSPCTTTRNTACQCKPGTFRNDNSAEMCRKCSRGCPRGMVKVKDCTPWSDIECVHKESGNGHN
Description: (§1) Soluble DR5, DR4, DcR1, or DcR2 protein (R&D Systems Catalog #631-T2-100/CF, 347-DR-100/CF, 630-TR-100/CF, 633-TR-100 respectively) were coated on an ELISA plate at 2 μg/mL in 100 mM NaHCO₃ pH 9.5 overnight at 4° C. A solution of 2% BSA in PBS was used for the blocking and antibody incubation steps. The plate was blocked for 1 hour at room temperature, then incubated with mouse anti-human DR5 mAb (Acris Antibodies Catalog #AM31206AF-N) for 1 hour at room temperature. anti-DR5 mAb was 3-fold serially diluted to concentrations ranging from 1 to 200 μg/mL. After washing 3 times with PBS plus 0.05% Tween-20, the plate was incubated with rat anti-mouse kappa-HRP (Southern Biotech Catalog #1180-05) for 1 hour at room temperature, protected from light. After washing 3 times with PBS plus 0.05% Tween-20, the plate was incubated with TMB substrate (BD Biosciences Catalog #555214) for 20 minutes at room temperature. The reaction was stopped with 1M H₂SO₄ and absorbance at 450 nm was determined using a microtiter plate reader.
(§2) For Human Anti-DR5 mAb ELISAs, 1:2000 Mouse Anti-Human Lambda-HRP (Southern Biotech Catalog #9180-05) or 1:6000 Mouse Anti-Human Kappa-HRP (Southern Biotech Catalog #9230-05) was used for detection.
(§3) An IgG version and pentameric IgM-J chain version of anti-DR5 mAb #2 were tested for binding specificity by ELISA as described in Example 2. As shown in FIG. 8A (IgG) and FIG. 8B (IgM), the antibodies bound to human DR5 but not human DR4 or either of the decoy receptors DcR1 or DcR2.

[2] = target: T2, Soluble DcR1 protein (R&D Systems Catalog #630-TR-100/CF) (UniProt O14798 26-221, limits assumed)
T2 construct: also called decoy receptor DcR1; TRAILR3
T2 sequence (looked up): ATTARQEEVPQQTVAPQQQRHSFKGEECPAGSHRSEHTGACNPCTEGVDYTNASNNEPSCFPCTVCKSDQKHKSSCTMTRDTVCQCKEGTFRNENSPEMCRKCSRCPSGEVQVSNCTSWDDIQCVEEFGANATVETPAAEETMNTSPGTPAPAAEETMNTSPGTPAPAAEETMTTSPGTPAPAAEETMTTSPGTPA
Description: as §1, §2, §3

[3] = target: T3, Soluble DcR2 protein (R&D Systems Catalog #633-TR-100) (UniProt Q9UBN6 56-211, limits assumed)
T3 construct: also called decoy receptor DcR2; TRAILR4
T3 sequence (looked up): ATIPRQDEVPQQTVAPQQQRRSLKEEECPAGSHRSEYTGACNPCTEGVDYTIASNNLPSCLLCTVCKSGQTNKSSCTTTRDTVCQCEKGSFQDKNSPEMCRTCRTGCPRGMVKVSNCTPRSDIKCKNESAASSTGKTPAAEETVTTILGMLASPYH
Description: as §1, §2, §3

Measured: binding result

B1: Anti-DR5 mAb #2, pentameric IgM-J chain version (antibody, V domains shown)
VH: QVQLQESGPGLVKPSQTLSLTCTVSGGSISSGDYFWSWIRQLPGKGLECIGHIHNSGTTYYNPSLKSRVTISVDTSKKQFSLRLSSVTAADTAVYYCARDRGGDYYYGMDVWGQGTTVTVSS
VL: EIVLTQSPGTLSLSPGERATLSCRASQGISRSYLAWYQQKPGQAPSLLIYGASSRATGIPDRFSGSGSGTDFTLTISRLEPEDFAVYYCQQFGSSPWTFGQGTKVEIK
modifications: Assembled as a pentamer of bivalent IgM binding units with one J chain (10 VH/VL pairs); the letters do not carry this.
notes: VH and VL were inserted into proprietary IgM vectors; also called DR5 MAb IgM #2; IgM Anti-DR5 mAb #2; not shown: IgM heavy-chain constant region, kappa light-chain constant region and J chain of the construct
no binding: [1] | [2] | [3]
